Assay [1] has as its target T1, full-length human CD19 on transfected K562 cells (human, UniProt P15391 20-556).
T1 construct: whole, on cells; K562 clone transfected with pCMV6-Entry; also called CD19 K562; CD19/K562; not shown: flag or Myc tag at the C-terminus
T1 sequence (looked up): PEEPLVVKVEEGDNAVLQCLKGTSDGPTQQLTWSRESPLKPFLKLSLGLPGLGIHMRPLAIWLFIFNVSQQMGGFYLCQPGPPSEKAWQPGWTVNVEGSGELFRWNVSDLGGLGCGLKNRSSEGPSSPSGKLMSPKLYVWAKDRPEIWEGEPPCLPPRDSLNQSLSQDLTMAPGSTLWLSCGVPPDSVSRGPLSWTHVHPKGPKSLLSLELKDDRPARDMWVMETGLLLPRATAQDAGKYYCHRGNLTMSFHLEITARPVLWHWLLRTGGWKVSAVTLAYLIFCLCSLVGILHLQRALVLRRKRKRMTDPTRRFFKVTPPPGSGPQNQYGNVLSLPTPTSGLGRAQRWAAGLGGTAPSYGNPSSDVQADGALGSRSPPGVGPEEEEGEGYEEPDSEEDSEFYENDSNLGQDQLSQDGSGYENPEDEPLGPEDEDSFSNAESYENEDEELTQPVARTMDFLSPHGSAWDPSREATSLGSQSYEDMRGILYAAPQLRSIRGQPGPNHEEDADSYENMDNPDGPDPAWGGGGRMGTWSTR
Nature of the assay: FACS, bispecific scFv at 200 nM on CD19 K562 cells, Alexa Fluor 647 anti-His detection, % positive cells. How it is done: (§1) Cells were spun down at 1300 rpm for 5 minutes at 4° C. to remove unbound antibodies. Cells were then washed once with 200 iaL of PBS per well. […] Samples were then spun down at 1300 rpm for 5 minutes at 4° C. and washed twice with 200uL of 1×PBS per well. The resultant samples were reconstituted in 200 uL of 1×PBS and read on Attune™ NxT Flow Cytometer.
In general terms: In flow cytometry, cells or beads pass a laser one at a time.

The target in assay [2] is T1, full-length human CD19 on transfected …. Put plainly: FACS, scFv at 200 nM on CD19 K562 cells, Alexa Fluor 647 anti-His detection, % positive cells. How it is done:
as §1

In assay [3] the target is full-length human CD22 on transfected K562 cells (human, UniProt P20273 20-847). Nature of the assay: cell-based or functional assay.
Assay [4] has as its target human CD19 and human CD22 co-expressed on transfected K562 cells (human, UniProt P15391 20-556; P20273 20-847). Put plainly: cell-based or functional assay.
For assay [5], the target named is T1, full-length human CD19 on transfected …. Put plainly: cell-based or functional assay.

B1: EPC-001-9 (bispecific scFv) (bispecific antibody)
scFv: QVQLQQWGAGLLKPSETLSLTCAVYGGSFSGYYWTWIRQPPGKGLEWIGEINHGGSSNYNPSLKSRVTISVDTSKKQFSLNLNSVTAADTAVYYCARGLGYRSGWYEVENAFDIWGQGTMVTVSSGGGGSGGGGSGGGGSQPVLTQPPSVSVAPGQTARITCGGNKIESRSVHWYQQKPGQAPVLVVYDDGARPSGIPERLSGSNSGDTATLTISRVEPGDEADYYCQVWDGSSVIFGGGTKLTVLGGGGSGGGGSGGGGSGGGGSEVQLVQSGAEVKKPGASVKVSCKASGYTFTSYGISWVRQAPGQGLEWMGWISAYNGNTNYAQKLQGRVTMTTDTSTSTAYMELRSLRSDDTAVYYCARDYGDPSGDDYWGQGTLVTVSSGGGGSGGGGSGGGGSEIVLTQSPATLSVSPGEGVTLSCRASQSVSSNLAWYQQRPGQAPRLLIYGASIKATDVPDRFSGGGSGTDFTLSISNLQSEDFAVYYCQQYHTWPPVTFGGGTKVEIKDYKDDDDKGGHHHHHH
notes: Expressed in E. coli periplasm, Ni-purified
For B1, the binding result in assay [1] is “binds”.

B2: EPC-001-4 (scFv)
scFv (VH-linker-VL): EVQLVQSGAEVKKPGASVKVSCKASGYTFTSYGISWVRQAPGQGLEWMGWISAYNGNTNYAQKLQGRVTMTTDTSTSTAYMELRSLRSDDTAVYYCARDYGDPSGDDYWGQGTLVTVSSGGGGSGGGGSGGGGSEIVLTQSPATLSVSPGEGVTLSCRASQSVSSNLAWYQQRPGQAPRLLIYGASIKATDVPDRFSGGGSGTDFTLSISNLQSEDFAVYYCQQYHTWPPVTFGGGTKVEIK
notes: also called anti-CD22 monospecific scFv; parental anti-CD22 scFv
Consider B2, for which the binding result in assay [2] is “no binding (tested: 200 nM)”.

B3: EPC-001-10 (bispecific scFv) (bispecific antibody)
scFv: EVQLVQSGAEVKKPGASVKVSCKASGYTFTSYGISWVRQAPGQGLEWMGWISAYNGNTNYAQKLQGRVTMTTDTSTSTAYMELRSLRSDDTAVYYCARDYGDPSGDDYWGQGTLVTVSSGGGGSGGGGSGGGGSEIVLTQSPATLSVSPGEGVTLSCRASQSVSSNLAWYQQRPGQAPRLLIYGASIKATDVPDRFSGGGSGTDFTLSISNLQSEDFAVYYCQQYHTWPPVTFGGGTKVEIKGSTSGSGKPGSGEGSTKGQVQLQQWGAGLLKPSETLSLTCAVYGGSFSGYYWTWIRQPPGKGLEWIGEINHGGSSNYNPSLKSRVTISVDTSKKQFSLNLNSVTAADTAVYYCARGLGYRSGWYEVENAFDIWGQGTMVTVSSGGGGSGGGGSGGGGSQPVLTQPPSVSVAPGQTARITCGGNKIESRSVHWYQQKPGQAPVLVVYDDGARPSGIPERLSGSNSGDTATLTISRVEPGDEADYYCQVWDGSSVIFGGGTKLTVLDYKDDDDKGGHHHHHH
notes: as for B1
With B3, in assay [1], the binding result was “binds”.

B4: EPC-001-7 (bispecific scFv) (bispecific antibody)
scFv: QVQLQQWGAGLLKPSETLSLTCAVYGGSFSGYYWTWIRQPPGKGLEWIGEINHGGSSNYNPSLKSRVTISVDTSKKQFSLNLNSVTAADTAVYYCARGLGYRSGWYEVENAFDIWGQGTMVTVSSGGGGSGGGGSGGGGSQPVLTQPPSVSVAPGQTARITCGGNKIESRSVHWYQQKPGQAPVLVVYDDGARPSGIPERLSGSNSGDTATLTISRVEPGDEADYYCQVWDGSSVIFGGGTKLTVLGGGGSGGGGSGGGGSGGGGSEVQLVQSGGGVVQPGKSLRLSCAASGFTFSSYGMHWVRQAPGKGLEWVAVIWYDGSNKYYADSVKGRFTISRDNSKNTLYLQMNSLRAEDTAVYYCARDGWTGFDYWGQGTTVTVSSGGGGSGGGGSGGGGSEIVLTQSPATLSVSPGEGVTLSCRASQSVSSNLAWYQQRPGQAPRLLIYGASIKATDVPDRFSGGGSGTDFTLSISNLQSEDFAVYYCQQYHTWPPVTFGGGTKVEIKDYKDDDDKGGHHHHHH
notes: Expressed in E. coli periplasm (pET22b, Rosetta II), Ni-purified; detected with an anti-His antibody
As for B4, the binding result in assay [1] is on record as “binds”.

B5: EPC-001-8 (bispecific scFv) (bispecific antibody)
scFv: EVQLVQSGGGVVQPGKSLRLSCAASGFTFSSYGMHWVRQAPGKGLEWVAVIWYDGSNKYYADSVKGRFTISRDNSKNTLYLQMNSLRAEDTAVYYCARDGWTGFDYWGQGTTVTVSSGGGGSGGGGSGGGGSEIVLTQSPATLSVSPGEGVTLSCRASQSVSSNLAWYQQRPGQAPRLLIYGASIKATDVPDRFSGGGSGTDFTLSISNLQSEDFAVYYCQQYHTWPPVTFGGGTKVEIKGSTSGSGKPGSGEGSTKGQVQLQQWGAGLLKPSETLSLTCAVYGGSFSGYYWTWIRQPPGKGLEWIGEINHGGSSNYNPSLKSRVTISVDTSKKQFSLNLNSVTAADTAVYYCARGLGYRSGWYEVENAFDIWGQGTMVTVSSGGGGSGGGGSGGGGSQPVLTQPPSVSVAPGQTARITCGGNKIESRSVHWYQQKPGQAPVLVVYDDGARPSGIPERLSGSNSGDTATLTISRVEPGDEADYYCQVWDGSSVIFGGGTKLTVLDYKDDDDKGGHHHHHH
notes: as for B1
For the molecule B5, the binding result in assay [1] is listed as “binds”.

B6: EPC-001-19 (bispecific CAR; G4S linker; co-expressed with EGFR), on transduced human T cells (other)
chain: EVQLVQSGAEVKKPGASVKVSCKASGYTFTSYGISWVRQAPGQGLEWMGWISAYNGNTNYAQKLQGRVTMTTDTSTSTAYMELRSLRSDDTAVYYCARDYGDPSGDDYWGQGTLVTVSSGGGGSGGGGSGGGGSEIVLTQSPATLSVSPGEGVTLSCRASQSVSSNLAWYQQRPGQAPRLLIYGASIKATDVPDRFSGGGSGTDFTLSISNLQSEDFAVYYCQQYHTWPPVTFGGGTKVEIKGGGGSQVQLQQWGAGLLKPSETLSLTCAVYGGSFSGYYWTWIRQPPGKGLEWIGEINHGGSSNYNPSLKSRVTISVDTSKKQFSLNLNSVTAADTAVYYCARGLGYRSGWYEVENAFDIWGQGTMVTVSSGGGGSGGGGSGGGGSQPVLTQPPSVSVAPGQTARITCGGNKIESRSVHWYQQKPGQAPVLVVYDDGARPSGIPERLSGSNSGDTATLTISRVEPGDEADYYCQVWDGSSVIFGGGTKLTVLESKYGPPCPPCPMFWVLVVVGGVLACYSLLVTVAFIIFWVKRGRKKLLYIFKQPFMRPVQTTQEEDGCSCRFPEEEEGGCELRVKFSRSADAPAYQQGQNQLYNELNLGRREEYDVLDKRRGRDPEMGGKPRRKNPQEGLYNELQKDKMAEAYSEIGMKGERRRGKGHDGLYQGLSTATKDTYDALHMQALPPR
In the case of B6, the “IFNγ/Granzyme B Double Positive Cell % (CD4+)” value is 0.92% in assay [3], 3.01% in assay [4] and 10.9% in assay [5]. Moreover, the “IFNγ/Granzyme B Double Positive Cell % (CD8+)” value in assay [3] turned out to be 68.5%; in assay [4] it was 74.9%; in assay [5], 82%.

B7: EPC-001-6 (bispecific antibody)
tandem scFv, anti-CD22 scFv - linker - anti-CD19 scFv - Flag - His: QVQLVQSGAEVKRPGASVKVSCKASGYTFTSYGISWVRQAPGQGLEWMGWISAYNGNTNYAQKLQGRVTMTTDTSTSTAYMELRSLRSDDTAVYYCARDPGIAVAGTVDYWGQGTLVTVSSGGGGSGGGGSGGGGSEIVMTQSPATLSVSPGEGVTLSCRASQSVSSNLAWYQQRPGQAPRLLIYGASIKATDVPDRFSGGGSGTDFTLSISNVQSEDFAVYYCQQYHTWTPVTFGGGTKVEIKGSTSGSGKPGSGEGSTKGQVQLQQWGAGLLKPSETLSLTCAVYGGSFSGYYWTWIRQPPGKGLEWIGEINHGGSSNYNPSLKSRVTISVDTSKKQFSLNLNSVTAADTAVYYCARGLGYRSGWYEVENAFDIWGQGTMVTVSSGGGGSGGGGSGGGGSQPVLTQPPSVSVAPGQTARITCGGNKIESRSVHWYQQKPGQAPVLVVYDDGARPSGIPERLSGSNSGDTATLTISRVEPGDEADYYCQVWDGSSVIFGGGTKLTVLDYKDDDDKGGHHHHHH
notes: also called EPC-001-6 (bispecific scFv)
With B7, the binding result in assay [1] is “binds”.

B8: EPC-001-5 (bispecific antibody)
tandem scFv, anti-CD19 scFv - linker - anti-CD22 scFv - Flag - His: QVQLQQWGAGLLKPSETLSLTCAVYGGSFSGYYWTWIRQPPGKGLEWIGEINHGGSSNYNPSLKSRVTISVDTSKKQFSLNLNSVTAADTAVYYCARGLGYRSGWYEVENAFDIWGQGTMVTVSSGGGGSGGGGSGGGGSQPVLTQPPSVSVAPGQTARITCGGNKIESRSVHWYQQKPGQAPVLVVYDDGARPSGIPERLSGSNSGDTATLTISRVEPGDEADYYCQVWDGSSVIFGGGTKLTVLGGGGSGGGGSGGGGSGGGGSQVQLVQSGAEVKRPGASVKVSCKASGYTFTSYGISWVRQAPGQGLEWMGWISAYNGNTNYAQKLQGRVTMTTDTSTSTAYMELRSLRSDDTAVYYCARDPGIAVAGTVDYWGQGTLVTVSSGGGGSGGGGSGGGGSEIVMTQSPATLSVSPGEGVTLSCRASQSVSSNLAWYQQRPGQAPRLLIYGASIKATDVPDRFSGGGSGTDFTLSISNVQSEDFAVYYCQQYHTWTPVTFGGGTKVEIKDYKDDDDKGGHHHHHH
notes: also called EPC-001-5 (bispecific scFv)
Consider B8, for which the binding result in assay [1] is “binds”.
